Biological target: T1, prolyl endopeptidase (PEP) (Elizabethkingia meningoseptica, UniProt P27028)
T1 construct: purchased Seikagaku Corporation (Tokyo, Japan)
Assay: biochemical
Assay type: biochemical
Settings: 0.7 and 1.4 mg/mL
Method: The PEP activity was determined as previously described with minor modifications. Enzyme assays were performed in 96-well microplates using Z-Gly-Pro-p-nitroanilide as a substrate and measuring the increase in absorbance at 410 nm due to the release of p-nitroaniline. Ten µL of tenfold peptide or hydrolysate solution in 100 mM sodium phosphate buffer, pH 7 ([…] for LFHs), 30 µL of a 0.1 U/mL PEP solution in 100 mM sodium phosphate buffer (pH 7) and 35 µL of the same sodium phosphate buffer were pre-incubated at 30 °C for 5 min, and the mixture incubated with 25 µL of 2 mM Z-Gly-Pro-p-nitroanilide in 40% 1,4-dioxane for 30 min at the same temperature. The reaction was finished by the addition of 100 µL 10% Triton X-100 in 1 M sodium acetate buffer (pH 4), and the absorbance measured at 410 nm in a microplate reader. Data are expressed as the percentage of PEP residual activity with respect to a control without peptide (100%).
The IC50 value of a peptide was defined as the concentration required to inhibit 50% of the PEP activity and the value for each experiment was estimated by non-linear regression of the experimental data to a four-parameter logistic curve using the software package SigmaPlot v 13.0 (SPSS Inc., Chicago, IL, USA).

T1 sequence (P27028 21-705): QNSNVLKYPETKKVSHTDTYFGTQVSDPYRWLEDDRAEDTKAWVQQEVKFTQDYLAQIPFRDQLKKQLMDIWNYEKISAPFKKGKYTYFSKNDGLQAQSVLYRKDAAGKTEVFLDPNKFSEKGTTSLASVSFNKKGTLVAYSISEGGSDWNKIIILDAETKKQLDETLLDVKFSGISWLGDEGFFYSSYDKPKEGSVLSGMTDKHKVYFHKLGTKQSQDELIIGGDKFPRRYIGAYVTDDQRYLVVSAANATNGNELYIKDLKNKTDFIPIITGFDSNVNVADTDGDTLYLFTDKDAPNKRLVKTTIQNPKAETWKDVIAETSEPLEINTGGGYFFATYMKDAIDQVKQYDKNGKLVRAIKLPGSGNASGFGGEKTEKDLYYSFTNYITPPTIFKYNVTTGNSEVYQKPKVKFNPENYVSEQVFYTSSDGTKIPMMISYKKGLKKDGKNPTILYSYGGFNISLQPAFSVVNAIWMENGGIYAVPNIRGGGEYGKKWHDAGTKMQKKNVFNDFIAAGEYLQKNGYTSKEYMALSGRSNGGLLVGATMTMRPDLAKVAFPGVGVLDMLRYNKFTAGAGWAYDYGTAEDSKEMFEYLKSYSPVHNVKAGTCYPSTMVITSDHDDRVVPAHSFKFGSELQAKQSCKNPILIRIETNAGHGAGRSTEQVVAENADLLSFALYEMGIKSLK

B1: Non-hydrolysed LF: bovine lactoferrin, multifunctional iron glycoprotein of milk whey, not hydrolysed (protein, UniProt P24627 20-708, looked up)
Lactotransferrin: APRKNVRWCTISQPEWFKCRRWQWRMKKLGAPSITCVRRAFALECIRAIAEKKADAVTLDGGMVFEAGRDPYKLRPVAAEIYGTKESPQTHYYAVAVVKKGSNFQLDQLQGRKSCHTGLGRSAGWIIPMGILRPYLSWTESLEPLQGAVAKFFSASCVPCIDRQAYPNLCQLCKGEGENQCACSSREPYFGYSGAFKCLQDGAGDVAFVKETTVFENLPEKADRDQYELLCLNNSRAPVDAFKECHLAQVPSHAVVARSVDGKEDLIWKLLSKAQEKFGKNKSRSFQLFGSPPGQRDLLFKDSALGFLRIPSKVDSALYLGSRYLTTLKNLRETAEEVKARYTRVVWCAVGPEEQKKCQQWSQQSGQNVTCATASTTDDCIVLVLKGEADALNLDGGYIYTAGKCGLVPVLAENRKSSKHSSLDCVLRPTEGYLAVAVVKKANEGLTWNSLKDKKSCHTAVDRTAGWNIPMGLIVNQTGSCAFDEFFSQSCAPGADPKSRLCALCAGDDQGLDKCVPNSKEKYYGYTGAFRCLAEDVGDVAFVKNDTVWENTNGESTADWAKNLNREDFRLLCLDGTRKPVTEAQSCHLAVAPNHAVVSRSDRAAHVKQVLLHQQALFGKNGKNCPDKFCLFKSETKNLLFNDNTECLAKLGGRPTYEEYLGTEYVTAIANLKKCSTSPLLEACAFLTR
inhibitory effect on PEP activity: did not show any inhibitory effect
